Results: the supplement of paper PMC9170038

Tested on: K4 kissing-loop RNA reporter
Assay: apparent KD of K4 kissing-loop reporter; higher = weaker reporter binding
Conditions: Eterna round: R107
Method: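 RNA-MaP round R107: designed RNA switches with theophylline, tryptophan, arginine or FMN aptamers are transcribed on-chip within common flanks. They are titrated with a labelled K4 kissing-loop RNA reporter in RNA-MaP buffer (100 mM Tris pH 7.5, 80 mM KCl, 4 mM MgCl2), without ligand or with the indicated ligand. Median apparent KD per design.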

[1] = input ligand: theophylline 20 uM
[2] = input ligand: tryptophan 2.4 mM
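Further: bound reporter read as fluorescence of individual clusters on recovered sequencing chips by microscopy, with normalized cluster intensities fitted with a binding model.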

Sequence	apparent KD of K4 kissing-loop reporter (input ligand: FMN 200 uM)	apparent KD of K4 kissing-loop reporter (input ligand: arginine 13.2 mM)	apparent KD of K4 kissing-loop reporter (input ligand: none)	apparent KD of K4 kissing-loop reporter [1]	apparent KD of K4 kissing-loop reporter [2]
GCGAUUCAGUGAUGUUGGAAAUACAGGGAUACCAGCCGAAAAUAAGGCCCUUGGCAGCUUAAUAGGAAAGAACUAAGAAAGACGC [Theophylline A Same State; Euphoria Solution 3]	556 nM	603 nM	671 nM	755 nM	460 nM
GCGCGUCAUGUCAGCGGUGACACUGUCGAUACCAGUGCCGAAAGGCGCCCUUGGCAGCGACGUGCUGGAGUGAUGUUCCAGCGUU [#2 Exclusion - Theophylline A Attempt #30 (HarryS)]	154 nM	135 nM	151 nM	149 nM	145 nM
GCGCGUCAUGUUGGCGGGAACUAAGCCGAUACCAGCCGGGAAACCGGCCCUUGGCAGCGGCGCGCCGGAGUGAUGUUCCGACAGA [#2 Exclusion - Theophylline A Attempt #1 (HarryS)]	226 nM	246 nM	254 nM	284 nM	164 nM
GCGGCCCAGCCGGAUACCAGUGACCCGCUGGGAACCGCGGGCCCAGAGUGAUGUUCGGGACACCCUUGGCAGCCGCCUGGGUCGC [#2 Same State - Theophylline B Attempt #18 (HarryS)]	689 nM	274 nM	928 nM	684 nM	320 nM
GCGUCUUGGUCGGCCGCCACUGAGCCUAGUCACACUCUUGAGUGAUGUUGAAGAUGGUGGACUUGCAGGACCGGGACCACGGACG [theeternabot_sameState_KL_Trp_B_41]	946 nM	612 nM	590 nM	569 nM	450 nM
GCUACCUAUGCAGGAUAUGGUAUUACGAGUGAUGUUCGAGGCAUAUAGAGUGAUGUUCUAUAUCCACCAGAAGGGCAUAGGUAGC	184 nM	148 nM	179 nM	162 nM	164 nM
GCUCAGGAGUGAUGUUCCAAGUGAUGUUAACGAGGACCGGUACGGCCGCCACUCGAUACGGCCGGACCGUAAGAUAAACUAGAGC [Same State - Tryptophan A (Freestyle 8)]	196 nM	216 nM	188 nM	380 nM	199 nM
GGACAAGUUUCCGAUACCAGCCUUUAUGCUGGACUAGCUUGAUCAGUGGCUAGUGAUGUUGGCCCUUGGCAGCGGGACUCUUCGG [theeternabot_exclusion_KL_Theo_B_10]	221 nM	204 nM	217 nM	238 nM	218 nM
GGACGACAGGCGGCCGCCACUCAAAGCAGCCAGCGAGUGAUGUUCGUGGCGGAGUGAUGUUCCUAGAGGACCGGGUCUGCAGUUC [Same State Tryptophan B GF 18]	449 nM	390 nM	468 nM	490 nM	362 nM
GGAGCUACCUGGGAUACCAGUCGGAGUCUCAGAGCUCGGAGUGAUGUUCUGGGAUGUUUCGGCCCUUGGCAGCUCUGGGACUCCU [#2 Exclusion - Theophylline B Attempt #18 (HarryS)]	872 nM	749 nM	864 nM	763 nM	881 nM
GGAGGAGAGGGAAGGAGCGUGAAAGAGAAAGAAUAUAGUGAUGUUAUAUAGAAGAAAGAAUCACAGGUAGGUCGCCCGGAGGAGG [SSArgB.A]	331 nM	556 nM	684 nM	446 nM	483 nM
GGAUAGGACACAGGAUAUGGUAGUGAUGUUACCAAACUGGUUAAACAUGUCAGAAAACUGGCAUGACCAGAAGGGUGUCCUAUCG [FmnBX 27 C11+G75]	83.4 nM	63.8 nM	66.2 nM	71 nM	63.8 nM
GGAUAGGACAGAGGAUAUCCAGUGAUGUUGGAGAAUUCUCCUUCAUCAUGUCACAAAAGUGGCAUGGGAGAAGGCUGUCCUAUCG [Mod of Eli's FmnBX 29 v3]	146 nM	579 nM	576 nM	899 nM	578 nM
GGAUAGGACAGAGGAUAUCCUGAGUCUACAAAGUAGGCUCAUAAAGGAUGAAUCCUAGUGAUGUUAGGAGAAGGCUGUCCUAUCG [FmnBX 16 - #SwitchBubble #StaticStem #Palindromic]	110 nM	84.6 nM	76.3 nM	79.5 nM	88.7 nM
GGAUAGGACAGAGGAUAUCUCUAAAGAGGCAAGAAAACUUGUCUCAGAGAUGACUCAGUGAUGUUGAGAGAAGGCUGUCCUAUCG [FmnBX 7 - #SwitchBubble #StaticStem]	425 nM	161 nM	174 nM	168 nM	152 nM
GGAUAGGACAGAGGAUAUCUCUGAGGCAAGAAAACUUGUCUCUAAGGAGAUGACUCAGUGAUGUUGAGAGAAGGCUGUCCUAUCG [FmnBX 12 - #SwitchBubble #StaticStem]	230 nM	144 nM	155 nM	140 nM	157 nM
GGAUAGGAUAGAGGAUAUGGUAUAGGCAAGAAUAACUUGUCAUGUAAAUCCAUGAGGAGUGAUGUUCCAGAAGGCUGUCCUAUCG [MatMod 9 - Jieux - Exclusion - FMN B]	620 nM	179 nM	231 nM	168 nM	123 nM
GGAUCCACCAGUGAUGUUGGAGAAAACUCUAAGGAUAUGACGAAAGUCAGAAGGUGGUAGACUGGGCAAAGUCCGGUCGGAUCCA [FmnA10 U30+G66]	490 nM	120 nM	378 nM	873 nM	660 nM
GGAUGGUAGGCGGCCGCCACUAAAACUGAACACAUACAAACCAGUGAUGUUGGUAUGAUGAAGUAUAGGACCGGGCCUAGAUAGA [Exclusion - Tryptophan B (Freestyle 2)]	1040 nM	731 nM	972 nM	672 nM	827 nM
GGCAGUGAUGUUGCCAGUGGCAGAUGCGAAGGAGCGCAGUGAGAUGCAGGUAGGUCGCGCAUUGAAAUUGCUGUCACUAAAAUGC [#2]	363 nM	369 nM	371 nM	276 nM	234 nM
GGCAGUGAUGUUGCCAGUGGCAGAUUAGAAGGAGCGUGGUGAGACACAGGUAGGUCGCUAAUUGAAAUUGCUGUCACUAAAAUGC [#6]	292 nM	282 nM	300 nM	368 nM	212 nM
GGCAGUGAUGUUGCCAGUGGCAGAUUGGAAGGAGCGUGGUGAGACACAGGUAGGUCGCUAAUUGAAAUUGCUGUCACUAAAAUGC [whbob_Ex_Arginine_A_2t130]	297 nM	314 nM	307 nM	308 nM	242 nM
